PMC9731233

Legend:
[1] = target: truncated antitoxin PrpA^2–54 (Pseudoalteromonas rubra); experiment: SEC-MALS; PrpA^2–54 in phosphate buffer (PB), 100 mM NaH2PO4/Na2HPO4 pH 8.0
[2] = target: truncated antitoxin PrpA^2–54 (Pseudoalteromonas rubra); experiment: SEC-MALS; PrpA^2–54 at increased protein concentration (within a limited range; concentrations not given)
[3] = target: truncated antitoxin PrpA^2–54 (Pseudoalteromonas rubra); experiment: crystal structure; PrpA^2–54 form I and form II, ~5.2 mg/ml in 0.1 M NaCl, 0.05 M Tris pH 8.0; sitting drop, 16°C; molecular replacement with VcParD2 (PDB 7B22)
[4] = target: truncated antitoxin PrpA^2–54 (Pseudoalteromonas rubra); experiment: SEC-MALS; purified PrpTA complex, PrpA^FL and PrpA^2–54 samples (Figure 1A); buffer of these runs not told
[5] = target: antitoxin PrpA^FL (Pseudoalteromonas rubra); experiment: crystal structure; PrpTA complex, ~3.6 mg/ml in 0.1 M NaCl, 0.05 M Tris pH 8.0; sitting drop, 16°C; molecular replacement
[6] = target: antitoxin PrpA^FL (Pseudoalteromonas rubra); experiment: SEC-MALS; purified PrpTA complex, PrpA^FL and PrpA^2–54 samples (Figure 1A); buffer of these runs not told

truncated antitoxin PrpA^2–54 (domain or fragment)
stoichiometry N [1]: 4
stoichiometry N [2]: 6
stoichiometry N [3]: 16
stoichiometry N [4]: 2

antitoxin PrpA^FL (natural protein)
stoichiometry N [5]: 2
stoichiometry N [6]: 4
